Test system: HeLa Kyoto
Test: melting temperature (median over replicates), in situ; higher = more thermally stable
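Further: HeLa Kyoto cells synchronized by double thymidine or nocodazole block, proteins quantified by TMT10plex mass spectrometry, three independent biological replicates.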

Substance	melting temperature (cell cycle stage: mitosis)	melting temperature (cell cycle stage: G1/S)
MARRRRRACIALFLVLLFAFGTLMGLRTLKAPDGLPALGPGLELAPFERRPEGAPAPAARAPAAPAAPPPPPPPPRTADPGGSPGPAPAEAEPAPVQSLRVYSDLHAFYYSWYGSPRREGHYIHWDHVMVPHWDPKISASYPRGRHSPPDDLGSSFYPELGPYSSRDPEVLREHMTQLKEAAIGVLVLSWYPPGMADDNGEPSDDLVPAILDTAHQYSIQVAFHIQPYKGRDDITVHDNIKYIIDTYGSHGAFYRYKNSMGKSLPLFYIYDSYLTSPEAWAHLLTPNGPHSIRNTPYDGVFIALLVEEGHTHDILAAGFDGMYTYFASNGFSFGSSHQNWKAVKNFCDANNLMFIPSVGPGYIDTSIRPWNNHNTRNRVNGKYYETALQAALTVRPEIVSITSFNEWHEGTQIEKAIPKKTPTRLYLDYLPHQPSLYLELTRRWAEHFIKEKEQWLM [MANEAL]	54.1 °C	–
MAEVPPGPSSLLPPPAPPAPAAVEPRCPFPAGAALACCSEDEEDDEEHEGGGSRSPAGGESATVAAKGHPCLRCPQPPQEQQQLNGLISPELRHLRAAASLKSKVLSVAEVAATTATPDGGPRATATKGAGVHSGERPPHSLSSNARTAVPSPVEAAAASDPAAARNGLAEGTEQEEEEEDEQVRLLSSSLTADCSLRSPSGREVEPGEDRTIRYVRYESELQMPDIMRLITKDLSEPYSIYTYRYFIHNWPQLCFLAMVGEECVGAIVCKLDMHKKMFRRGYIAMLAVDSKYRRNGIGTNLVKKAIYAMVEGDCDEVVLETEITNKSALKLYENLGFVRDKRLFRYYLNGVDALRLKLWLR [NAA30]	–	51.9 °C
MSSSSSSPRETYEEDREYESQAKRLKTEEGEIDYSAEEGENRREATPRGGGDGGGGGRSFSQPEAGGSHHKVSVSPVVHVRGLCESVVEADLVEALEKFGTICYVMMMPFKRQALVEFENIDSAKECVTFAADEPVYIAGQQAFFNYSTSKRITRPGNTDDPSGGNKVLLLSIQNPLYPITVDVLYTVCNPVGKVQRIVIFKRNGIQAMVEFESVLCAQKAKAALNGADIYAGCCTLKIEYARPTRLNVIRNDNDSWDYTKPYLGRRDRGKGRQRQAILGEHPSSFRHDGYGSHGPLLPLPSRYRMGSRDTPELVAYPLPQASSSYMHGGNPSGSVVMVSGLHQLKMNCSRVFNLFCLYGNIEKVKFMKTIPGTALVEMGDEYAVERAVTHLNNVKLFGKRLNVCVSKQHSVVPSQIFELEDGTSSYKDFAMSKNNRFTSAGQASKNIIQPPSCVLHYYNVPLCVTEETFTKLCNDHEVLTFIKYKVFDAKPSAKTLSGLLEWECKTDAVEALTALNHYQIRVPNGSNPYTLKLCFSTSSHL [HNRNPLL]	49.7 °C	47.6 °C
MLRRVTVAAVCATRRKLCEAGRELAALWGIETRGRCEDSAAARPFPILAMPGRNKAKSTCSCPDLQPNGQDLGENSRVARLGADESEEEGRRGSLSNAGDPEIVKSPSDPKQYRYIKLQNGLQALLISDLSNMEGKTGNTTDDEEEEEVEEEEEDDDEDSGAEIEDDDEEGFDDEDEFDDEHDDDLDTEDNELEELEERAEARKKTTEKQSAAALCVGVGSFADPDDLPGLAHFLEHMVFMGSLKYPDENGFDAFLKKHGGSDNASTDCERTVFQFDVQRKYFKEALDRWAQFFIHPLMIRDAIDREVEAVDSEYQLARPSDANRKEMLFGSLARPGHPMGKFFWGNAETLKHEPRKNNIDTHARLREFWMRYYSSHYMTLVVQSKETLDTLEKWVTEIFSQIPNNGLPRPNFGHLTDPFDTPAFNKLYRVVPIRKIHALTITWALPPQQQHYRVKPLHYISWLVGHEGKGSILSFLRKKCWALALFGGNGETGFEQNSTYSVFSISITLTDEGYEHFYEVAYTVFQYLKMLQKLGPEKRIFEEIRKIEDNEFHYQEQTDPVEYVENMCENMQLYPLQDILTGDQLLFEYKPEVIGEALNQLVPQKANLVLLSGANEGKCDLKEKWFGTQYSIEDIENSWAELWNSNFELNPDLHLPAENKYIATDFTLKAFDCPETEYPVKIVNTPQGCLWYKKDNKFKIPKAYIRFHLISPLIQKSAANVVLFDIFVNILTHNLAEPAYEADVAQLEYKLVAGEHGLIIRVKGFNHKLPLLFQLIIDYLAEFNSTPAVFTMITEQLKKTYFNILIKPETLAKDVRLLILEYARWSMIDKYQALMDGLSLESLLSFVKEFKSQLFVEGLVQGNVTSTESMDFLKYVVDKLNFKPLEQEMPVQFQVVELPSGHHLCKVKALNKGDANSEVTVYYQSGTRSLREYTLMELLVMHMEEPCFDFLRTKQTLGYHVYPTCRNTSGILGFSVTVGTQATKYNSEVVDKKIEEFLSSFEEKIENLTEEAFNTQVTALIKLKECEDTHLGEEVDRNWNEVVTQQYLFDRLAHEIEALKSFSKSDLVNWFKAHRGPGSKMLSVHVVGYGKYELEEDGTPSSEDSNSSCEVMQLTYLPTSPLLADCIIPITDIRAFTTTLNLLPYHKIVK [NRDC]	50.9 °C	50.5 °C
MKVLGRSFFWVLFPVLPWAVQAVEHEEVAQRVIKLHRGRGVAAMQSRQWVRDSCRKLSGLLRQKNAVLNKLKTAIGAVEKDVGLSDEEKLFQVHTFEIFQKELNESENSVFQAVYGLQRALQGDYKDVVNMKESSRQRLEALREAAIKEETEYMELLAAEKHQVEALKNMQHQNQSLSMLDEILEDVRKAADRLEEEIEEHAFDDNKSVKGVNFEAVLRVEEEEANSKQNITKREVEDDLGLSMLIDSQNNQYILTKPRDSTIPRADHHFIKDIVTIGMLSLPCGWLCTAIGLPTMFGYIICGVLLGPSGLNSIKSIVQVETLGEFGVFFTLFLVGLEFSPEKLRKVWKISLQGPCYMTLLMIAFGLLWGHLLRIKPTQSVFISTCLSLSSTPLVSRFLMGSARGDKEGDIDYSTVLLGMLVTQDVQLGLFMAVMPTLIQAGASASSSIVVEVLRILVLIGQILFSLAAVFLLCLVIKKYLIGPYYRKLHMESKGNKEILILGISAFIFLMLTVTELLDVSMELGCFLAGALVSSQGPVVTEEIATSIEPIRDFLAIVFFASIGLHVFPTFVAYELTVLVFLTLSVVVMKFLLAALVLSLILPRSSQYIKWIVSAGLAQVSEFSFVLGSRARRAGVISREVYLLILSVTTLSLLLAPVLWRAAITRCVPRPERRSSL [TMCO3]	52.9 °C	54.4 °C
PLXNA2	54.4 °C	54.1 °C
MSAARESHPHGVKRSASPDDDLGSSNWEAADLGNEERKQKFLRLMGAGKKEHTGRLVIGDHKSTSHFRTGEEDKKINEELESQYQQSMDSKLSGRYRRHCGLGFSEVEDHDGEGDVAGDDDDDDDDSPDPESPDDSESDSESEKEESAEELQAAEHPDEVEDPKNKKDAKSNYKMMFVKSSGS [C11ORF58]	–	55 °C
MPGPSPGLRRALLGLWAALGLGLFGLSAVSQEPFWADLQPRVAFVERGGSLWLNCSTNCPRPERGGLETSLRRNGTQRGLRWLARQLVDIREPETQPVCFFRCARRTLQARGLIRTFQRPDRVELMPLPPWQPVGENFTLSCRVPGAGPRASLTLTLLRGAQELIRRSFAGEPPRARGAVLTATVLARREDHGANFSCRAELDLRPHGLGLFENSSAPRELRTFSLSPDAPRLAAPRLLEVGSERPVSCTLDGLFPASEARVYLALGDQNLSPDVTLEGDAFVATATATASAEQEGARQLVCNVTLGGENRETRENVTIYSFPAPLLTLSEPSVSEGQMVTVTCAAGAQALVTLEGVPAAVPGQPAQLQLNATENDDRRSFFCDATLDVDGETLIKNRSAELRVLYAPRLDDSDCPRSWTWPEGPEQTLRCEARGNPEPSVHCARSDGGAVLALGLLGPVTRALSGTYRCKAANDQGEAVKDVTLTVEYAPALDSVGCPERITWLEGTEASLSCVAHGVPPPDVICVRSGELGAVIEGLLRVAREHAGTYRCEATNPRGSAAKNVAVTVEYGPRFEEPSCPSNWTWVEGSGRLFSCEVDGKPQPSVKCVGSGGATEGVLLPLAPPDPSPRAPRIPRVLAPGIYVCNATNRHGSVAKTVVVSAESPPEMDESTCPSHQTWLEGAEASALACAARGRPSPGVRCSREGIPWPEQQRVSREDAGTYHCVATNAHGTDSRTVTVGVEYRPVVAELAASPPGGVRPGGNFTLTCRAEAWPPAQISWRAPPGALNIGLSSNNSTLSVAGAMGSHGGEYECAATNAHGRHARRITVRVAGPWLWVAVGGAAGGAALLAAGAGLAFYVQSTACKKGEYNVQEAESSGEAVCLNGAGGGAGGAAGAEGGPEAAGGAAESPAEGEVFAIQLTSA [ICAM5]	–	54.5 °C

— the supplement of paper PMC5998384
